These results are taken from publication PMC9373814, “3p-C-NETA: A versatile and effective chelator for development of Al^18F-labeled and therapeutic radiopharmaceuticals” (Theranostics, 2022).

Data set [1] has as its system T1, SSTR2.
T1 construct: from tissue; host or cells: female Wistar rats in vivo (adrenals, pituitary, pancreas)
The experiment in a line: in vivo. The settings on record: female, Wistar, rat, iv, total radioactivity. The protocol:
Dynamic PET scans were performed on a small animal PET/MR scanner based on previously reported protocol. Briefly, female Wistar rats (208-231 g) were anaesthetized with a 5% isoflurane/ oxygen mixture before being maintained at 1-2% isoflurane/1 L/minute throughout the experiment. Rats tail veins were cannulated before being placed in the imaging cell (Bruker Biospin) which was then placed into the scanner; temperature and respiration were monitored throughout the scanning via a physiological monitoring system (SA Instruments, Stony Brook, NY, USA). Rats were injected with [^18F]AlF-3p-C-NETA-TATE (5.5-18.5 MBq, apparent molar activity 22 ± 8 GBq/μmol) at the start of the PET acquisition in presence or absence of octreotide acetate (2.5 mg/kg co-injection with radiopharmaceutical; blocking scans were performed the following day in the same animals). 75 min scans were carried out with the pituitary to kidneys in the PET FOV, during which respiration-gated 3D spin-echo MRI (TurboRARE sequence, TR = 500 mseconds (ms), TE = 18.8 ms, RARE factor = 8, FOV 14x6x6 cm, isotropic resolution of 0.5 mm) images were acquired with a quadrature radio-frequency resonator (transmit/receive, 86 mm internal diameter, Bruker Biospin). PET and MRI scans were then repeated at 100-120 minutes with the animal in the same position. Dynamic PET data were divided into timeframes (4×15 s, 1×240 s, 7×600 s) with corrections for decay, randoms, scatter and deadtime and then reconstructed using an MLEM algorithm with 24 iterations and an isotropic voxel size of 0.5 mm. PET images were normalized to injected activity and animal weight to give standardized uptake values (SUV), and selected organs were outlined to create volumes of interest after coregistration with MR images of which SUVmean values are reported; a circular VOI was placed over the splenic division of the pancreas (as visualised via tracer uptake and mapped to the blocked scan) to determine pancreatic uptake. All image analysis was carried out using the PFUSIT module of PMOD (v 4.004, PMOD Technologies Ltd., Zurich, Switzerland). Quantitative data are expressed as mean ± standard error of the mean (SEM).

The target of data set [2] is T2, SSTR2 (Rattus norvegicus, UniProt P30680).
T2 construct: from tissue; host or cells: female Wistar rats in vivo (adrenals, pituitary, pancreas)
T2 sequence (P30680 whole entry): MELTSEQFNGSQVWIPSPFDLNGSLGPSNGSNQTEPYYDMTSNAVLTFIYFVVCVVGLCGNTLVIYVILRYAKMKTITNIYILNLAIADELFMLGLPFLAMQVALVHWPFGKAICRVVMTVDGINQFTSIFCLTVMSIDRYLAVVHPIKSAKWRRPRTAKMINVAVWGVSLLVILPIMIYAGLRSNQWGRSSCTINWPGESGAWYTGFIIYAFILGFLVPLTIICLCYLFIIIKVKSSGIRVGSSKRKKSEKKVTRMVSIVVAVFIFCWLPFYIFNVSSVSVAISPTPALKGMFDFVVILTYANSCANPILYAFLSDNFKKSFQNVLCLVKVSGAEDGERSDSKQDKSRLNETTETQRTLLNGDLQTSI
Further details: method as in PMID 31997090. The settings on record: naïve rats, 2 h p.i.; cited from earlier work.

As to `C[C@@H](O)[C@H](NC(=O)[C@@H]1CSSC[C@H](NC(=O)[C@@H](Cc2ccccc2)NC(=O)CCC(=O)Nc2ccc(CCCC(CN3CCN(CC(=O)O)CCN(CC(=O)O)CC3)N(CC(=O)O)CC(=O)O)cc2)C(=O)N[C@@H](Cc2ccc(O)cc2)C(=O)N[C@H](Cc2c[nH]c3ccccc23)C(=O)N[C@@H](CCCCN)C(=O)N[C@@H]([C@@H](C)O)C(=O)N1)C(=O)O` (stereo partly drawn) [[^18F]AlF-3p-C-NETA-TATE], the SUV at 1.25 h stood at 0.24 ± 0.03 SUV with SSTR2 [1] (2.5 mg/kg, SUV adrenals); 0.34 ± 0.2 SUV in the data set on SSTR2 [1] (2.5 mg/kg, SUV pancreas); 0.2 ± 0.04 SUV with SSTR2 [1] (2.5 mg/kg, SUV pituitary); 1.2 ± 0.59 SUV with SSTR2 [1] (SUV adrenals); 7.78 ± 4.26 SUV in the data set on SSTR2 [1] (SUV pancreas); 0.93 ± 0.34 SUV in the data set with SSTR2 [1] (SUV pituitary). For the same compound, the SUV at 2 h in the data set with SSTR2 [1] (2.5 mg/kg, SUV adrenals) is 0.18 ± 0.04 SUV; in the data set on SSTR2 [1] (2.5 mg/kg, SUV pancreas), 0.31 ± 0.07 SUV; with SSTR2 [1] (2.5 mg/kg, SUV pituitary) it was 0.21 ± 0.06 SUV; in the data set with SSTR2 [1] (SUV adrenals) it was 1.22 ± 0.65 SUV; in the data set with SSTR2 [1] (SUV blood and non-SSTR2 expressing organs) it was less than 0.6 SUV; with SSTR2 [1] (SUV bone uptake in the spine) it was 0.43 ± 0.25 SUV. In addition, the SUV at 2 h worked out at 8.35 ± 5.07 SUV with SSTR2 [1] (SUV pancreas) and 0.93 ± 0.36 SUV in the data set with SSTR2 [1] (SUV pituitary).

Regarding [^18F]AlF-NOTA-Octreotide, the “SUV bone uptake in the spine” value with SSTR2 [2] is listed as 0.45 ± 0.03.
